Reference: PMC3029278

Molecular target: CEACAM1-4L-HA (HA-tagged human CEACAM1) (human) (UniProt P13688)
Chain of UniProt P13688 (P13688 35-526): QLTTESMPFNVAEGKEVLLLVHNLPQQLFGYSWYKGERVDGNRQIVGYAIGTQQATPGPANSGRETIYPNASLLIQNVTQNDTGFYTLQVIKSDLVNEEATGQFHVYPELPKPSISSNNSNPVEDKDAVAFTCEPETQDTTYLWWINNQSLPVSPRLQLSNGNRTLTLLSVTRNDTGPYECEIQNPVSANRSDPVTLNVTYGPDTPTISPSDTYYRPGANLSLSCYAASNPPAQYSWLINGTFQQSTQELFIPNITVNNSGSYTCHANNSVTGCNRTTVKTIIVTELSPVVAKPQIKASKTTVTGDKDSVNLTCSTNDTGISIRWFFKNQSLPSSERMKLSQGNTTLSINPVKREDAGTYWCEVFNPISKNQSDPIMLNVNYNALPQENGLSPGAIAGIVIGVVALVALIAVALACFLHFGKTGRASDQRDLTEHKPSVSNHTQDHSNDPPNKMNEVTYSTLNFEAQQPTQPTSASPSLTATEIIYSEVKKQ

Opa52 protein of Neisseria gonorrhoeae strain MS11 (natural protein)
internalised OpaCEA-positive gonococci in CEACAM1-transfected 293 cells (gentamicin protection assay, 2 h): 210000 cfu/ml
